One block for each molecule: values may come before it.
Experiments:
[1] = biological target: Bax_(C87(C62S, C126S)) labeled with maleimide gem-diethyl nitroxide (MAG) (human) (UniProt Q07812); test: DEER (double electron-electron resonance, EPR); inactive Bax in buffer (aqueous solution) with 50% v/v glycerol-d8, flash frozen; Q-band 4-pulse DEER, NO-NO at 50 K, Gd-Gd at 10 K; one labeled variant per sample
[2] = biological target: Bax_(C87(C62S, C126S)) labeled with maleimide Gd-DOTA (human) (UniProt Q07812); test: as above
[3] = biological target: T1, Bax wild type labeled with MTSL at cysteines 62 and 126 (human, UniProt Q07812 1-192, MTSL nitroxide spin label (R1) on the native cysteines 62 and 126); test: DEER (double electron-electron resonance, EPR); two Bax variants mixed before oligomerization (3-fold excess of unlabeled BaxWT or of Bax_(C87Gd) over nitroxide-labeled BaxWT), activated with cBid and MOM-like liposomes, pellet fraction; NO-NO (50 K), NO-Gd (10 K) and Gd-Gd (10 K) DEER channels on the same sample; details: both partners purified
T1 construct: Bax, human, full length; two native cysteines at positions 62 and 126; also called Bax_(WTR1); source: E. coli (BL21/RIPL/pTYB1-Bax), purified; labeled with MTSL

[4] = biological target: T2, Bax wild type labeled with iodacetamide gem-diethyl nitroxide (IAG) (human, UniProt Q07812 1-192, IAG (iodacetamide gem-diethyl nitroxide) spin label on the native cysteines 62 and 126); test: as above; details: both partners purified
T2 construct: Bax, human, full length; two native cysteines at positions 62 and 126; also called Bax_(WTIAG); source: E. coli (BL21/RIPL/pTYB1-Bax), purified; labeled with IAG

fraction of dimeric protein in solution [1]: < 10%
Molecule: Bax_(C87(C62S, C126S)) labeled with maleimide gem-diethyl nitroxide (MAG) (from UniProt Q07812 1-192) (natural protein)

fraction of dimeric protein in solution [2]: < 10%
binding result [3]: binds
binding result [4]: binds
B1: Bax_(C87(C62S, C126S)) labeled with maleimide Gd-DOTA (natural protein, human, UniProt Q07812 1-192, looked up)
chain: MDGSGEQPRGGGPTSSEQIMKTGALLLQGFIQDRAGRMGGEAPELALDPVPQDASTKKLSESLKRIGDELDSNMELQRMIAAVDTDCPREVFFRVAADMFSDGNFNWGRVVALFYFASKLVLKALSTKVPELIRTIMGWTLDFLRERLLGWIQDQGGWDGLLSYFGTPTWQTVTIFVAGVLTASLTIWKKMG
modifications: maleimide Gd-DOTA spin label on cysteine 87
notes: Bax, human, full length, single surface-exposed cysteine at position 87; also called Bax_(C87Gd); source: E. coli, purified in the same way as the wild type protein; labeled with maleimide Gd-DOTA

Reference: publication PMC6737250, “A new perspective on membrane-embedded Bax oligomers using DEER and bioresistant orthogonal spin labels” (Scientific Reports, 2019)
